These results are taken from patent publication US20190256582A1.

Like-named read-outs stand apart in the source and are kept apart here.

Experiment [1] addresses T1, panel of four distinct ZIKV strains (H/PF/2013; MR766, MRS-OPY and PV10552). Put plainly: cell-based or functional assay.
Experiment [2] deals with T1, panel of four distinct ZIKV strains …. The experiment in a line: cell-based or functional assay. This is another data set of the same source.

B1: ZKA190 (antibody, V domains shown)
VH: QVQLVESGGGVVQPGRSLRLSCAASGFTFSKYGMHWVRQAPGKGLEWVAVISYEGSNKYYADSVKGRFTISRDNSKNTLYLQMNSLRAEDTAVYYCAKSGTQYYDTTGYEYRGLEYFGYWGQGTLVTVSS
VL: EIVLTQSPGTLSLSPGERATLSCRASQSVSSSYLAWYQQKRGQAPRLLIYDASSRATGIPDRFSGSGSGTDFTLTISRLEPEDFAVYYCQQYGRSRWTFGQGTKVEIK
As for B1, the ZIKV neutralization IC50 (four strains, Vero cells, flow cytometry) was 0.6 to 8 ng/mL in experiment [1] and 0.004 to 0.05 nM in experiment [2].
